# Measurements published in patent US20150231236A1, “METHODS FOR TREATING PATIENTS WITH HYPERCHOLESTEROLEMIA THAT IS NOT ADEQUATELY CONTROLLED BY MODERATE-DOSE STATIN THERAPY” (Regeneron Pharmaceuticals, Inc., priority 2014, published 2015).
# Experiments:
# [1] = system: patients with hypercholesterolemia at high CV risk not adequately controlled with rosuvastatin (10 mg or 20 mg); conditions: in vivo
# [2] = system: patients with hypercholesterolemia at high CV risk not adequately controlled with rosuvastatin (10 mg or 20 mg); test: Example 3: safety, treatment-emergent adverse events in pooled treatment groups; conditions: mAb316P group
# [3] = system: patients with hypercholesterolemia at high CV risk not adequately controlled with rosuvastatin (10 mg or 20 mg); test: Example 3: randomized, double-blind trial, lipid efficacy of mAb316P add-on to rosuvastatin vs EZE add-on or rosuvastatin dose doubling; type: in vivo, human; conditions: for Proportion of Patients Reaching LDL-C goal (%): week 24, LDL-C <70 mg/dL very high risk or <100 mg/dL high risk
# Description: The present study was a randomized, double-blind, active-comparator, parallel-group study in patients at high CV risk with non-FH or heFH who are not adequately controlled with rosuvastatin (10 mg or 20 mg) with or without other lipid-modifying therapy (LMT) (excluding EZE). The study design is illustrated in FIG. 2. Patients who entered the study were taking either rosuvastatin 10 mg or rosuvastatin 20 mg. The former patients were randomized to 1 of 3 treatment arms (arms 1 to 3); the latter patients were randomized to 1 of 3 treatment arms (arms 4 to 6). The treatment arms are as follows:
# (B) a double-blind treatment period of 24 weeks. […] The patient/caregiver administered subsequent injections outside of the clinic according to the dosing schedule. […] The last dose of daily oral study drugs was administered at week 24.
# The first injection of study drug was administered at the clinical site, as soon as possible after the patient was randomized into the study. The patient was monitored at the clinical site for at least 30 minutes following the first injection. The patient/caregiver administered subsequent injections outside of the clinic, according to the dosing schedule.
# The primary efficacy endpoint was the percent change in calculated LDL-C from baseline to week 24, which is defined as: 100× (calculated LDL-C value at week 24−calculated LDL-C value at baseline)/calculated LDL-C value at baseline. The baseline calculated LDL-C value was the last LDL-C level obtained before the first double-blind study drug injection. The calculated LDL-C at week 24 was the LDL-C level obtained within the week 24 analysis window and during the main efficacy period. The main efficacy period is defined as the time from the first double-blind study drug injection up to 21 days after the last double-blind study drug injection or up to the upper limit of the week 24 analysis window, whichever comes first.
# Total-C, HDL-C, TG, ApoB, ApoA-1, and Lp(a) were directly measured by a central laboratory. LDL-C was calculated using the Friedewald formula. […] Non-HDL-C was calculated by subtracting HDL-C from the total-C. Ratio ApoB/ApoA-1 was calculated.
# For clarification, the ITT analysis is defined for patients in the ITT population and includes all endpoint assessments in an analysis window, regardless of study treatment dosing status (i.e. includes post-treatment assessments). The on-treatment analysis is defined for patients in the mITT population and includes all endpoint assessments from the first double-blind study drug (capsule or injection, whichever comes first) up to 21 days after the last double-blind study drug injection or 3 days after the last capsule intake, whichever comes first (i.e. includes assessments in the efficacy treatment period).
# [4] = ITT Population, Comparison 1: mAb316P + rosuvastatin 10 mg arm vs. rosuvastatin 20 mg arm
# [5] = ITT Population, Comparison 2: mAb316P + rosuvastatin 10 mg arm vs. EZE + rosuvastatin 10 mg arm
substance,measurement,setting,value
"mAb316P: human anti-PCSK9 antibody; heavy chain SEQ ID NO:5, light chain SEQ ID NO:9",2 consecutive calculated LDL-C measurements below 25 mg/dL,[1],13 (12.6%) patients (%)
same,General Allergic TEAEs,[1],11 (10.7%) patients (%)
same,SOC General disorders and administration site conditions,[1],15 (14.6%) patients (%)
same,SOC Immune system disorders,[1],1 (1.0%) patients (%)
same,SOC Psychiatric disorders,[1],5 (4.9%) patients (%)
same,"SOC Respiratory, thoracic and mediastinal disorders",[1],7 (6.8%) patients (%)
same,SOC Skin and subcutaneous tissue disorders,[1],8 (7.8%) patients (%)
same,TEAE accidental overdose,[1],3 patients
same,TEAE arthralgia,[1],4 patients
same,TEAE constipation,[1],2 patients
same,TEAE diarrhea,[1],2 patients
same,TEAE dizziness,[1],3 patients
same,TEAE fatigue,[1],3 patients
same,TEAE hypokalaemia,[1],2 patients
same,TEAE laceration,[1],3 patients
same,TEAE local swelling,[1],2 patients
same,TEAE myalgia,[1],4 patients
same,TEAE nasopharyngitis,[1],4 patients
same,TEAE nausea,[1],3 patients
same,TEAE pain in extremity,[1],2 patients
same,TEAE sciatica,[1],2 patients
same,TEAEs,[1],58 (56.3%) patients (%)
same,Treatment-emergent SAEs,[1],6 (5.8%) patients (%)
same,Treatment-emergent cardiovascular events adjudicated positively,[1],Zero
same,Treatment-emergent neurocognitive disorders,[1],1 (1.0%) patients (%)
same,Treatment-emergent neurologic disorders,[1],2 (1.9%) patients (%)
same,discontinued study treatment early due to a treatment emergent adverse event,[1],5 (4.9%) patients (%)
same,tolerability,[1],well tolerated
same,TEAE influenza,[2],4 patients
same,TEAE upper respiratory tract infection,[2],6 patients
same,TEAE urinary tract infection,[2],4 patients
same,Proportion of Patients Reaching LDL-C goal (%),[3]; Baseline Rosuvastatin 10 mg,84.9%
same,Proportion of Patients Reaching LDL-C goal (%),[3]; Baseline Rosuvastatin 20 mg,66.7%
same,"LS Mean Difference, percent change from baseline of Apo B to week 24",[3]; [4],−29.2%
same,"LS Mean Difference, percent change from baseline of Apo-B to week 12",[3]; [4],−28.1%
same,"LS Mean Difference, percent change from baseline of HDL-C at week 24",[3]; [4],7.4%
same,"LS Mean Difference, percent change from baseline of Lp(a) to week 24",[3]; [4],−23.9%
same,"LS Mean Difference, percent change from baseline of Non-HDL-C to week 12",[3]; [4],−29.5%
same,"LS Mean Difference, percent change from baseline of Total-C to week 12",[3]; [4],−20.1%
same,"LS Mean Difference, percent change from baseline of Total-C to week 24",[3]; [4],−20.6%
same,"LS Mean Difference, percent change from baseline of calculated LDL-C to week 12",[3]; [4],−32.5%
same,"LS Mean Difference, percent change from baseline of calculated LDL-C to week 24",[3]; [4],−34.2%
same,"LS Mean Difference, percent change from baseline of non-HDL-C to week 24",[3]; [4],−31.4%
same,"Odds Ratio, proportion of patients reaching calculated LDL-C < 70 mg/dL (1.81 mmol/L) at Week 24",[3]; [4],18.6
same,"Odds Ratio, proportion of very high CV risk patients reaching calculated LDL-C < 70 mg/dL or high CV risk patients reaching calculated LDL-C < 100 mg/dL at Week 24",[3]; [4],10.2
same,"LS Mean Difference, percent change from baseline of Apo B to week 24",[3]; [5],−26.8%
same,"LS Mean Difference, percent change from baseline of Apo-B to week 12",[3]; [5],−24.0%
same,"LS Mean Difference, percent change from baseline of HDL-C at week 24",[3]; [5],5.1%
same,"LS Mean Difference, percent change from baseline of Lp(a) to week 24",[3]; [5],−23.6%
same,"LS Mean Difference, percent change from baseline of Non-HDL-C to week 12",[3]; [5],−24.9%
same,"LS Mean Difference, percent change from baseline of Total-C to week 12",[3]; [5],−17.2%
same,"LS Mean Difference, percent change from baseline of Total-C to week 24",[3]; [5],−20.3%
same,"LS Mean Difference, percent change from baseline of calculated LDL-C to week 12",[3]; [5],−32.2%
